This series can be described thus: yeast display, Sf9 membrane polyspecificity reagent, FACS + sequencing; frameworks hold sequencing errors. A digest of the protocol:
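In a synthetic yeast display library (Saccharomyces cerevisiae BJ5465), nanobody expression was induced with galactose for 36–48 hours. FACS gates were set low and high (top ~1%) using anti-HA fluorescence for expression and streptavidin fluorescence for binding of the Sf9 membrane reagent. Each polyreactivity label is drawn from the gate of origin.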
In the case of “QVQLVESGGGLVQAGGSLRLSCSASGRIFRINAMGWYRQAPGKDRELVASISRRGGNTYYADSVKGRFTISRDNAKNTVYLQMNSLKPEDTAVYYCAADVHTPALYTYAAGDYWGQGTQVTVSS”, the “polyreactivity (PSR sort gate)” value is “low polyreactivity”.

With “QVQLVESGGGLVQAGGSLRLSCSASGRTFNKYAMGWYRQAPGKERELVAAISRSGGSTYYADSVKGRFTISRDNAKNTVYLQMNSLKPEDTAVYYCNAAYFGQHVGTGFDYWGQGTQVTVSS”, the “polyreactivity (PSR sort gate)” value is “high polyreactivity”.

Turning to “QVQLVESGGGLVQAGGSLRLSCSASGRTSVLYAMGWYRQAPGKEREFVAAITWNSGSTYYADSVKGRFTISRDHAKNTVYLQMISLKPEDTAVYYCNADYYFSSYRSTYDYWGQGTQVTVSS”, the “polyreactivity (PSR sort gate)” value is listed as “low polyreactivity”. For “QVQLVESGGGLVQAGGSLRLSCSASGSIFAYYAMGWYRQAPGKERELVAAISKSAGSTYYADSVKGRFTISRDNAKNTVYLQMNSLKPEDTAVYYCAAVVLGRRLGFRGDYNYWGQGTQVTVSS”, the “polyreactivity (PSR sort gate)” value is given as “high polyreactivity”. Take “QVQLVESGGGLVQAGGSLRLSCSASGSIFGYYGMGLYRQAPGKERELVATISWSGDSTNYADSVKGRFTISRDNAKNTVYLQMNSLKPEDTAVYYCAAEWHAGWGGWLRYRHYEYWGQRTQVTVSS”: the “polyreactivity (PSR sort gate)” value is given as “low polyreactivity”. Regarding “QVQLVESGGGLVQAGGSLRLSCSASGSIFKRNAMGWYRQAPGKERELVAAITTRGGRTYYADSVKGRFTISRDNAKNTVYLQLNSLKPEDTAVYFCAVVPAAGSGGYGYSRYDYWGQGSQVTVSS”, the “polyreactivity (PSR sort gate)” value was “high polyreactivity”. Then “QVQLVESGGGLVQAGGSLRLSCSASGSIFKYYTMGWYRQAPGKERELVASINGGGSTNYADSVKGRFTISRDNAKNTVYLQMNSLKPEDTAVYYCNARYWWQDGYWGQGTQLTVSS”, with “high polyreactivity”; and “QVQLVESGGGLVQAGGSLRLSCSASGSIFPYYAMGWSRQAPGKERELVAAISRSGGSTYYADSVKGRFTISRDNAKNTVYLQMNSLKPEDTAGYYCAAVGGVRPQQHYYYRYDYWGQGTQVTVSS”, with “high polyreactivity”. Then “QVQLVESGGGLVQAGGSLRLSCSASGSIFSANVMGWYRQAPGKDRELVAAIRRGGTTYYADSVKGRFTISRDNAKNTVYLQMNSLKPEDNAVYYCATDGIFGSYLRFEVAYDYWGQGTQVTVSS”, with “low polyreactivity”. Then “QVQLVESGGGLVQAGGSLRLSCSASGSIFVWYDMGWYRQAPGKERELVATISLSGVSTYYADSVKGRFTISRDNAKNTVYLQMNSLKPEDTAVYYCNKDDPVDGPLYFRKYDYWGQGTQVTVSS”, with “low polyreactivity”. Turning to “QVQLVESGGGLVQAGGSLRLSCSASGSTFGDYAMRWYRQAPGKREFVAAISFSGGNTYYADSVKVRFTISRDNAKNTVYLQMNSLKPEDTAVYYCNADWDWFYSTGSLGFPDFYYWGQGTQVSVSS”, the “polyreactivity (PSR sort gate)” value is recorded as “low polyreactivity”.

Regarding “QVQLVESGGGLVQAGGSLRLSCSASGSTFGRYVMGWYRQPPGKERELVAAISKNAGSTYYADSVKGRFTISRDNAKNTVYLQMNSLKPEDTAVYYCNTVYYWYSPLNYWGQGTQVTVSS”, the “polyreactivity (PSR sort gate)” value is on record as “high polyreactivity”. For the sequence “QVQLVESGGGLVQAGGSLRLSCSASGSTFHYNAMGWYRQAQGKERELVAYISWRGASKYDADSVKGRFTISRDNAKNTVYLQMSSMKTEDTAVFFFNAVLTSYWYNSYKSRGDYWGQGTLVTVSS”, the “polyreactivity (PSR sort gate)” value is reported as “high polyreactivity”.

Take “QVQLVESGGGLVQAGGSLRLSCSASGSTFRVYAMGWYRQAPGKERELVAAISWSGGRTYYADSVKGRFTISRDNAKNTVYLQMNSLKPEDTAVYYCAADTYGRYDYWGQGTQVTVSS”: the “polyreactivity (PSR sort gate)” value is on record as “high polyreactivity”. Then “QVQLVESGGGLVQAGGSLRLSCSASGSTIPVYAMGWYRQPPGKERELVAAITGSGARTYYADSVKGRFTFSRDNAKNTVYLQMNSLKPEDTAVYYCAKRTVIAVYGFPYRYGMNYWGQGTQVTVSS”, with “high polyreactivity”; and “QVQLVESGGGLVQAGGSLRLSCTASGIIFGTYAMGWYRQAPGKERELVAAISSSGVSTYYADSVKGRFTISRDNAKYTDYLQMNSLKPEDTAVYYCAAPLHYGYYYCGQGTQVTVSS”, with “high polyreactivity”.

Turning to “QVQLVESGGGLVQAGGSLRLSCVASGLTQPSAIGWYRHAPGKERELVPRISWRGASTYYADSVKGRFTISRDTAKNNFYLQINSLKPEDTAVYYCAARSTIQRRGYYGYRVGRSEYGYWGQGTQVTVSS”, the “polyreactivity (PSR sort gate)” value is given as “low polyreactivity”. Then “QVQLVESGGGLVQAGGSLRLSCVASGRIFLTYAMGWYRQAPGKERELVAAISYSGASTYYADSVKGRFTISRDNAKNTVYLQMNSLKPEDTAVYYCATERVGTPRMNYWGQGTQVTLSS”, with “high polyreactivity”; and “QVQLVESGGGLVQAGGSLRLSCVASGRTFGNKAMGWYRQAPGKERELVAAITSGGSTNYADSVKGCFTISRDNAKNTVYLQMNSLKPEDTAVYYCAAKQYRAGGGYWGQGTQVTVSS”, with “high polyreactivity”; and “QVQLVESGGGLVQAGGSLRLSCVASGRTFSRYAMGWYRQAPGKERELVAAISRRGGSTYYADSVKGRFTISRDNAKNTVYLQMNRLKPEDTAVNYCAAGYITCGSGNWVVTPYDYWGQGTQVTVSS”, with “high polyreactivity”. As to “QVQLVESGGGLVQAGGSLRLSCVPPDMGWYRQAPGKERELVAAISRGGITNYADSVKRRFTISRDNAKNTVYLQMNSLKPEDTAVYYCAAEYTYYSYGGNYDYWGQGTQVTVSS”, the “polyreactivity (PSR sort gate)” value was “low polyreactivity”. The same measure for “QVQLVESGGGLVQAGGSLRLSFAACGSIFTVYTMGWYRQAPGKERELVAAINSRGGTTYYADSVKGRFTISRDTAKNTVYLQMNSLKPEDTAVYYCAADWGYKDFGYWGQGTQVTVSS”: “high polyreactivity”; for “QVQLVESGGGLVQAGGSLRLSFAASGFTFTLYAMGLYRQAPGKEREFVAAITARGGSTYYADSVKGRFTISRDNAKNTVYLQMNSLKPEDTAVYYCNKEYGSRRYPYRYNYWGQGTQVTVSS”: “high polyreactivity”; for “QVQLVESGGGLVQAGGSLRLSFAASGITFGYYDMGWYRQAPGKERELVASISSGGNTNYADSVKGRFTISRDNAKNTVYLQMNSLKPEDTAVYYCNVRYWGFYDYDYWGQGTQVTVSS”: “low polyreactivity”. Then “QVQLVESGGGLVQAGGSLRLSFAASGITFVRYAMGWYRQPPGKERALVAAISRSGTSTYSADSVKGRFTISRDNAKNTVYLQMNSLKPEDTAVYYCYVRRYDYWGQGTQVTVSS”, with “high polyreactivity”; and “QVQLVESGGGLVQAGGSLRLSFAASGLIFGYYTMGWYTQAPGKERELVAAITGIADSTYYADSVKGRFTISRDNAKNTVYLQMNSLKPEDTAVYYCAADKYVAEYDYWGQGTQVTVSS”, with “low polyreactivity”. Then “QVQLVESGGGLVQAGGSLRLSFAASGLTFHYYAMGWYIQEPGKERELVAVISSGGSTYYAYSVKGRFTISRDNAKNTVYLQMNSLKPEDTAVYYCAALSSRTYKTGYYTYDYWGQGTQVTVSS”, with “low polyreactivity”.

In the case of “QVQLVESGGGLVQAGGSLRLSFAASGRIFDVYAMGRYRQAPGKERELVAAITWSGGRTYYADSVKGRFTLSRDNAKNTVYLQMNSLKPEDTAVYYCAAEKPYVRGYLGTYDYWGQGTQVTVSS”, the “polyreactivity (PSR sort gate)” value is “low polyreactivity”.

As for “QVQLVESGGGLVQAGGSLRLSFAASGRIFGWYAIGGYRKAAGTEREVVAAISTSGVRTYYADSVKGRFTISRDNAKITVYLQMKSLKPEDTAVYYCAARYIRAYSRDYWGQGTQVTVSS”, the “polyreactivity (PSR sort gate)” value is on record as “high polyreactivity”. Regarding “QVQLVESGGGLVQAGGSLRLSFAASGRIFLYNTMGWYRQAPGKERELVARISWSGGSTKYADSVKGRFTISRDNAKNTVYLQMNSLKPEDTAVYYCNAGYFTEYNSWGQGTQVTVSS”, the “polyreactivity (PSR sort gate)” value is given as “high polyreactivity”.

On to “QVQLVESGGGLVQAGGSLRLSFAASGRTFHGYAMGWYRQAPGKERELVARINWSDGRTYYADSVKGRFTISRDNAKNTVYLQMNSLKPEDTAVYYCAADKTVSYAPAWYYYWGQGTHVTVSS”, for which the “polyreactivity (PSR sort gate)” value is “low polyreactivity”. As for “QVQLVESGGGLVQAGGSLRLSFAASGSIFYRNSMGWYRQAPGKERELVAAISWSGASTYYADSVKGRFTISRDNAKNTVYLQMNSLKPEETAVYYCYAGKYAYLWLKLFDPKLDYWGQGTQVTVSS”, the “polyreactivity (PSR sort gate)” value is on record as “low polyreactivity”. Then “QVQLVESGGGLVQAGGSLRLSFAASGSTFRYNTRGWYRQAPGKEREVVATITWDTDSTYYADSVKGRFTISRDNAKNTVYLQMNSLKPEDTAVYYCAAETTWADKSYHYLQEYNYCGQGTQVTVSS”, with “low polyreactivity”.

As to “QVQLVESGGGLVQAGGSLRLSFAASGSTFTINAMGWYRPAPGKERELVAAINDGHDTYYADSVKGRFTISRDNAKNTVYLQMNSLKPEDTAVYFCAADIIYGYEVYTYTSDYWGQGTQVTVSS”, the “polyreactivity (PSR sort gate)” value is “low polyreactivity”. “QVQLVESGGGLVQAGGSLRLSFAASGSTFWLYPMGWYRQATAKDREFVATISSSTTYYADSVKGRFTISRDNAKNTVYLQMNCLKAEDTEVYYCAKQHGLTSGGSRTDYWGQGTQGTVSS”: the “polyreactivity (PSR sort gate)” value was “low polyreactivity”. Then “QVQLVESGGGLVQAGGSLRLSFAASGYTFAGNAMGWYRQAPGKERELVAVITYSGVSTYYADSVKGRFTISRDNAKNTVYLQMNSLKPEDTAVYYCNAVRERYASDYWGQGTQVTVSS”, with “low polyreactivity”; and “QVQLVESGGGLVQAGGSLRLSFADSGLILNFYAKSSYRQAPGKERELVAAISWNAGSTYYADSVKGRFTISREKSMNTGYVQMKSLKPEDTAVYYCAVLPGRYDKTASHYDYWGQGTQVTVSS”, with “low polyreactivity”. Then “QVQLVESGGGLVQAGGSLRLSFADSGYNFPLYAMGWYIQAPGKERELVADINIGGASTYYADSVKGRFTISRDNAKNTFYLQMNSLKPEDTAVYSCAARDCYQRRQRRYDYWGQGTQVTVSS”, with “low polyreactivity”; and “QVQLVESGGGLVQAGGSLRLSFDASGFISGDNTMGWYRQAPGKERELVAAINSGGSTYYADSVKGRFTISRDNAKNTFYLQMNSLKPEDTAVYYCAADYSTWLRAYDFWGQGTQVTVSS”, with “low polyreactivity”. Turning to “QVQLVESGGGLVQAGGSLRLSFSASGRTFPFYAMGWYRQEPGKERDLVAAITVSGGSTYYADSVKGRFTISRDNAKNTVYLQMNSLKPVDTAVYYCNAKRSDQSSKTFNYWGQGTQVTVSS”, the “polyreactivity (PSR sort gate)” value is on record as “low polyreactivity”.

(Values after the nanobody polyreactivity screen of Harvey et al. (2022).)
